{"source": "paper PMC10540217", "about": "“Native Semisynthesis of Isopeptide-Linked Substrates for Specificity Analysis of Deubiquitinases and Ubl Proteases” (Journal of the American Chemical Society, 2023)", "binders": {"B1": {"name": "USPL1 catalytic domain (enzyme, human, UniProt Q5W0Q7 227-500, looked up)", "chain": "VQWKNAYALCWLDCILSALVHSEELKNTVTGLCSKEESIFWRLLTKYNQANTLLYTSQLSGVKDGDCKKLTSEIFAEIETCLNEVRDEIFISLQPQLRCTLGDMESPVFAFPLLLKLETHIEKLFLYSFSWDFECSQCGHQYQNRHMKSLVTFTNVIPEWHPLNAAHFGPCNNCNSKSQIRKMVLEKVSPIFMLHFVEGLPQNDLQHYAFHFEGCLYQITSVIQYRANNHFITWILDADGSWLECDDLKGPCSERHKKFEVPASEIHIVIWERK"}}, "biological_target": "SUMO2-KG-TAMRA (human, UniProt P61956 1-95, C-terminal glycine linked by an isopeptide bond to the lysine side chain of the KG-TAMRA peptide)", "sequence (P61956 whole entry)": "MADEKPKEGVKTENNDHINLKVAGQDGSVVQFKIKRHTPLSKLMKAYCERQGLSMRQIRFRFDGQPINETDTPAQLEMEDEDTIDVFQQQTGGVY", "test": "cell-based or functional assay", "data": [{"binder": "B1", "values": [{"measurement": "catalytic efficiency in the fluorescence-polarization cleavage assay, SUMO2-KG-TAMRA against SUMO1-KG-TAMRA", "result": "~25", "unit": "fold"}]}]}
